Numbered stars: 1 amine (or outer) side, 2 acyl side, 3 side chain; on linkers, the order of the positions; unused ones are H or OH. Bridge positions count the residues as written; N and C are the ends. Square brackets hold non-standard residues; d marks the D form. Primed or numbered codes have the meaning given here. Ends that are not written are not given here. acetyl″ = bridging -C(=O)-CH2- from a haloacetyl (chloroacetyl) group on the side-chain amine of K/Orn/Dab/Dap, the thiol sulfur replaces the halogen on its CH2 (X(acetyl) notation); acetyl = acetyl (haloacetyl before ring closure) on the side-chain amine, O=C(C[*:1])[*:2]; COCH2 = acetyl group that carries the bridge; hCys = N[C@@H](CCS)C(=O)O
Molecular target: T1, Recombinant Human FGFR2 alpha (IIIc) Fc Chimera Protein (Homo sapiens, UniProt P21802)
T1 construct: Fc (chimera); purchased R&D systems 712-FR-050
T1 sequence (P21802 with tags, fused parts or gaps limits assumed): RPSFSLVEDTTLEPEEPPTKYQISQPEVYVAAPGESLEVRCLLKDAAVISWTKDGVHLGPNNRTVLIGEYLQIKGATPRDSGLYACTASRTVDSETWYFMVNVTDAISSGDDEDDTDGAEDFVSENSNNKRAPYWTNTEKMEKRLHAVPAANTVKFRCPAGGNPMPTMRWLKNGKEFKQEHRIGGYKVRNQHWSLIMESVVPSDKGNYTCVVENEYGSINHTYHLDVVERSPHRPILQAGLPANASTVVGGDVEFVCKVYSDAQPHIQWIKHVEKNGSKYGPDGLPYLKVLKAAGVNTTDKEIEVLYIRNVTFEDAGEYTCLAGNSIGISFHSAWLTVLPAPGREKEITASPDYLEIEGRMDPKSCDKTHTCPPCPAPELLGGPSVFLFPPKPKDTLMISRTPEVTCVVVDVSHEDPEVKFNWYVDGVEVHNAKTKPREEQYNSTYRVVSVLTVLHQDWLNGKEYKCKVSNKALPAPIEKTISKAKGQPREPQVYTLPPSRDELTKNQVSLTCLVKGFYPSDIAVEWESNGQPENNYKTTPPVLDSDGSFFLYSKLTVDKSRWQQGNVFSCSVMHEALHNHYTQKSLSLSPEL
Assay: ELISA binding affinity of enzymatically synthesized peptide to FGFR
Settings: ELISA luminescence signal at 10 nmol/L peptide, SEQ ID NO: 47 at 10 nmol/L standardized to 1; enzyme synthesis product
Outline: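 FGFR2 alpha (IIIc) Fc chimera (5 ng/well) was immobilized, and Myc-tagged peptide was bound 3 h at room temperature, then detected with anti-Myc antibody (2 h) and chemiluminescent substrate. Signal was corrected against FGFR-free wells. Score A–D was the luminescence at 10 nmol/L peptide, normalized to cyclic peptide SEQ ID NO: 47.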

Molecule	Evaluation result of binding affinity to FGFR
393 (YCHENYLDPEQHQYFHYFK(COCH2)Y; thioether 2-19 (inferred)) [compound 393]	C (0.1 or more and less than 0.5)
394 (YCHENYLDPEQYQYFHYFK(COCH2)R; thioether 2-19 (inferred)) [compound 394]	B (0.5 or more and less than 0.7)
395 (YCHENYLDPEQYQYFHYFK(COCH2)H; thioether 2-19 (inferred)) [compound 395]	A (0.7 or more)
396 (YCEENYLDPEQHQYFIYFK(COCH2)R; thioether 2-19 (inferred)) [compound 396]	B (0.5 or more and less than 0.7)
397 (YCEENYLDPEQHQYFIYFK(COCH2)H; thioether 2-19 (inferred)) [compound 397]	A (0.7 or more)
398 (YCHENYLDPEQHQYFIYFK(COCH2)R; thioether 2-19 (inferred)) [compound 398]	B (0.5 or more and less than 0.7)
399 (QK(COCH2)PQNFINPVQWRYFQHYCN; thioether 2-19 (inferred)) [compound 399]	C (0.1 or more and less than 0.5)
400 (VCQQDNYFYPQQWFFFVHYK(COCH2)H; thioether 2-20 (inferred)) [compound 400]	A (0.7 or more)
401 (QCQFLNYVNHVQWHYFWVFK(COCH2)S; thioether 2-20 (inferred)) [compound 401]	C (0.1 or more and less than 0.5)
402 (PCEVYNYWYPTQWFFFTQFK(COCH2)K; thioether 2-20 (inferred)) [compound 402]	A (0.7 or more)
403 (ACRRANWIHPIQWFFFHVYK(COCH2)H; thioether 2-20 (inferred)) [compound 403]	B (0.5 or more and less than 0.7)
404 (DCIRPYDQLQLIYQYLYQLK(COCH2)K; thioether 2-20 (inferred)) [compound 404]	C (0.1 or more and less than 0.5)
405 (QCLTQRVYLRQLAYYRLYRK(COCH2)I; thioether 2-20 (inferred)) [compound 405]	C (0.1 or more and less than 0.5)
406 (PCEQQNFHSVIQWHFFAQYK(COCH2)N; thioether 2-20 (inferred)) [compound 406]	A (0.7 or more)
407 (LCVQGNYQNPTQWYYFQLYK(COCH2)W; thioether 2-20 (inferred)) [compound 407]	B (0.5 or more and less than 0.7)
408 (HCSQHQTTYYQIYAYLHAIK(COCH2)I; thioether 2-20 (inferred)) [compound 408]	C (0.1 or more and less than 0.5)
409 (LCNNWENYFDWLQWSYYIAYK(COCH2)E; thioether 2-21 (inferred)) [compound 409]	A (0.7 or more)
410 (WCQESSNYLAPLQWYFFNWYK(COCH2)T; thioether 2-21 (inferred)) [compound 410]	A (0.7 or more)
411 (TCVDKDNWYNHVQWQYFFLYK(COCH2)Q; thioether 2-21 (inferred)) [compound 411]	A (0.7 or more)
412 (QCEYALQYYRFYVAQRHWVDKL; Description of Artificial Sequence: Cyclic peptide) [compound 412]	C (0.1 or more and less than 0.5)

Molecule	Evaluation result of binding affinity to FGFR
413 (QCDQDAIQWVYDLQYYRVWHKV; Description of Artificial Sequence: Cyclic peptide) [compound 413]	C (0.1 or more and less than 0.5)
414 (YCNYEWDGARRQIAYYRIFLKL; Description of Artificial Sequence: Cyclic peptide) [compound 414]	C (0.1 or more and less than 0.5)
415 (YCDWVEVANARQLAYYTLYRKK; Description of Artificial Sequence: Cyclic peptide) [compound 415]	C (0.1 or more and less than 0.5)
416 (LCTQFPASQRYYFALYRLWHKS; Description of Artificial Sequence: Cyclic peptide) [compound 416]	C (0.1 or more and less than 0.5)
417 (LCQIYLYLTALQQGFEDFYPK(COCH2)N; thioether 2-21 via acetyl) [compound 417]	C (0.1 or more and less than 0.5)
418 (DCLRQQVYQYLYILFQNDIAK(COCH2)D; thioether 2-21 via acetyl) [compound 418]	C (0.1 or more and less than 0.5)
419 (DCHTREDWQIHHLYQLLYQLK(COCH2)Y; thioether 2-21 via acetyl) [compound 419]	C (0.1 or more and less than 0.5)
420 (YCEAQPYYFQLYRLWHRQEK(COCH2)P; thioether 2-20 via acetyl) [compound 420]	C (0.1 or more and less than 0.5)
421 (VCLDEQQALFHQYYRITRRK(COCH2)V; thioether 2-20 via acetyl) [compound 421]	C (0.1 or more and less than 0.5)
422 (YCTQEQAFRQLAYYQIFRRSK(COCH2)S; thioether 2-21 via acetyl) [compound 422]	C (0.1 or more and less than 0.5)
423 (WCFTEGIQSTVQLTYSYLYK(COCH2)L; thioether 2-20 via acetyl) [compound 423]	C (0.1 or more and less than 0.5)
424 (VCTQPQQDFELIYQYLYQLAK(COCH2)Q; thioether 2-21 via acetyl) [compound 424]	C (0.1 or more and less than 0.5)
425 (GCGYTQLHYQHLFAWLHARK(COCH2)V; thioether 2-20 via acetyl) [compound 425]	C (0.1 or more and less than 0.5)
426 (PCDPLNLQQWYTAVYQLWHK(COCH2)R; thioether 2-20 via acetyl) [compound 426]	C (0.1 or more and less than 0.5)
427 (ECDTADYPQEWIQDVYQYLYK(COCH2)R; thioether 2-21 via acetyl) [compound 427]	C (0.1 or more and less than 0.5)
428 (ECDQAQQVYALIYRYLYQLQK(COCH2)V; thioether 2-21 via acetyl) [compound 428]	C (0.1 or more and less than 0.5)
429 (YCHENYLDPEQYQYFHYFK(COCH2); thioether 2-19 via acetyl) [compound 429]	C (0.1 or more and less than 0.5)
430 (CHENYLDPEQYQYFHYFK(COCH2)Y; thioether 1-18 via acetyl) [compound 430]	A (0.7 or more)
431 (CHENYLDPEQYQYFHYFK(COCH2); thioether 1-18 via acetyl) [compound 431]	C (0.1 or more and less than 0.5)
432 (CENYLDPEQYQYFHYFK(COCH2)Y; thioether 1-17 via acetyl) [compound 432]	C (0.1 or more and less than 0.5)

Molecular target: T2, Recombinant Human FGFR2 alpha (IIIc) Fc Chimera Protein, CF (R&D systems, 712-FR-050) (human, UniProt P21802 22-377)
T2 construct: bought; not shown: Fc part of the chimera
T2 sequence (P21802 22-377, change not shown): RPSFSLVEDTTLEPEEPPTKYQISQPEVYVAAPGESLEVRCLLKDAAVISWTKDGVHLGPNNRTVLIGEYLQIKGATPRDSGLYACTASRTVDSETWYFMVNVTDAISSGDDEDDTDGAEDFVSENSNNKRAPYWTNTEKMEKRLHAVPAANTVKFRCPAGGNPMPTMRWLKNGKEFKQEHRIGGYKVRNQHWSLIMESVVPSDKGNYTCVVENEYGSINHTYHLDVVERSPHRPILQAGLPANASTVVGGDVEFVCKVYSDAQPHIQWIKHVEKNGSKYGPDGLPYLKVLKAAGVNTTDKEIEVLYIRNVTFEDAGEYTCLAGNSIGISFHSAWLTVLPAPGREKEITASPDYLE
Assay: SPR, 10 nmol/L peptide over immobilized FGFR2-Fc
Settings: not given
Description: A CM5 sensor chip (Cytiva, 29149603) was set in Biacore-T200 (manufactured by Cytiva) which is a surface plasmon resonance device, and an HBS-EP buffer (Cytiva, BR100826) was added as a running buffer at a flow rate of 10 μL/min to equilibrate the flow channel. Next, 70 μL of a mixed aqueous solution of 0.2 mol/L 1-(3-dimethylaminopropyl)-3-ethylcarbodiimide (EDC) and 0.05 mol/L N-hydroxysuccinimide (NHS) was added to activate the sensor chip. Then, Recombinant Human FGFR2 alpha (IIIc) Fc Chimera Protein CF (R&D systems, 712-FR-050) prepared at 50 nmol/L in an Acetate 4.5 buffer (Cytiva, BR100350) was added thereto to perform immobilization at about 5000 RU. Thereafter, the blocking treatment was performed with an ethanolamine solution. In addition, in another flow channel of the same sensor chip, blocking treatment was performed immediately after activation without immobilizing FGFR.
A cyclic peptide diluted to 10 nmol/L using HBS-EP was added to each flow channel of the FGFR-immobilized sensor chip produced above at 25° C. for 10 minutes, then HBS-EP was allowed to flow as a running buffer for 30 minutes, and the binding of the cyclic peptide to FGFR was measured. Thereafter, a regeneration treatment of removing the bound cyclic peptide was performed by repeating the flow of a regeneration liquid in which sodium chloride powder was dissolved in Glysine 1.5 (Cytiva, BR100354) to a final concentration of 0.15 mol/L for 1 minute in each flow channel twice. The binding amount of the cyclic peptide was evaluated from the difference between the measured value of Biacore-T200 in the flow channel in which FGFR was immobilized and the measured value of Biacore-T200 in the flow channel in which FGFR was not immobilated, in a case where a 10 nmol/L cyclic peptide was allowed to flow.

Molecule	binding amount (SPR, cyclic peptide molecules bound per FGFR molecule at 10 nmol/L peptide)
Q[hCys]PQNFINPVQWRYFQHYK(COCH2)NKKK (thioether 2-19 via acetyl″, chemically synthesized) [cyclic peptide SEQ ID NO: 433]	≥ 0.7 moleculesofthecyclicpeptide/onemoleculeoffgfr
QK(COCH2)PQNFINPVQWRYFQHY[hCys]NKKK (thioether 2-19 via acetyl″, chemically synthesized) [cyclic peptide SEQ ID NO: 437]	≥ 0.7 moleculesofthecyclicpeptide/onemoleculeoffgfr
QXPQNFINPVQWRYFQHYXNKKK (not fully specified; thioether ring (Hcy)-(Dab(acetyl)), chemically synthesized) [cyclic peptide SEQ ID NO: 435]	≥ 0.7 moleculesofthecyclicpeptide/onemoleculeoffgfr
QK(COCH2)PQNFINPVQWRYFQHY[hCys]NKKK (thioether 2-19 via acetyl″, chemically synthesized) [cyclic peptide SEQ ID NO: 438]	≥ 0.7 moleculesofthecyclicpeptide/onemoleculeoffgfr
QXPQNFINPVQWRYFQHYXNKKK (not fully specified; thioether ring (Hcy)-(Orn(acetyl)), chemically synthesized) [cyclic peptide SEQ ID NO: 434]	≥ 0.7 moleculesofthecyclicpeptide/onemoleculeoffgfr
